In article PMC7949164:
One block for each molecule: values may come before it.

Target: T1, myc-tagged mouse Ccr1 Y18F mutant (mouse) (UniProt P51675)
T1 sequence: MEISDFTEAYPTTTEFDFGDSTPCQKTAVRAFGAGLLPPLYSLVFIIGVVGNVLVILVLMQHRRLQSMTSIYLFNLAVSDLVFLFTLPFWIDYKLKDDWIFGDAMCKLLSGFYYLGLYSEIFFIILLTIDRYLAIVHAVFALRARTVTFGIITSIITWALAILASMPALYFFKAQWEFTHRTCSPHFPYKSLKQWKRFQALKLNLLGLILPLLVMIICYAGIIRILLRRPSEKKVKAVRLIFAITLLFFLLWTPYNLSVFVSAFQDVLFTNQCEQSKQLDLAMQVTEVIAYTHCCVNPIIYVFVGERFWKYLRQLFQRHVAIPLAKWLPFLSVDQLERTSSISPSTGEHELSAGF

internalisation: cell surface receptor left (MFI in % of buffer alone) after 100 nM chemokine, FACS, L1.2 cells (% cell surface receptor): 20
Molecule: recombinant mouse Ccl9/10 (ligand)

internalisation: cell surface receptor left (MFI in % of buffer alone) after 100 nM chemokine, FACS, L1.2 cells (% cell surface receptor): 35
B1: recombinant mouse Ccl3 (ligand)
chain: APYGADTPTACCFSYSRKIPRQFIVDYFETSSLCSQPGVIFLTKRNRQICADSKETWVQEYITDLELNA
